# Data from patent publication US20020098560.
# T1: Recombinant TFPI-2 (novel human Kunitz-type inhibitor encoded by clone J-2-11, expressed in BHK570 cells and purified from conditioned medium)
# T1 chain: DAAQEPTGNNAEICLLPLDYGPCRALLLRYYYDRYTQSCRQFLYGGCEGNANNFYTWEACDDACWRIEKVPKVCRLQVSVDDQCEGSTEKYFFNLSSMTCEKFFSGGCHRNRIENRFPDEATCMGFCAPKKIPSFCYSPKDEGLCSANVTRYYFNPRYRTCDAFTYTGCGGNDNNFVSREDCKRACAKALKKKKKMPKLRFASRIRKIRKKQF
# Columns and labels:
# [1] = tested on: Recombinant TFPI-2 (novel human Kunitz-type inhibitor encoded by clone J-2-11, expressed in BHK570 cells and purified from conditioned medium)
# [2] = biological target: T1, Recombinant TFPI-2 (novel human …)
molecule,measurement,setting,value
Human factor Xa,amidolytic activity of 20 nM factor Xa towards chromogenic substrate S-2222 (absorbance at 405 nm),[1],Recombinant TFPI-2 was shown to weakly inhibit the amidolytic activity of 20 nM factor Xa towards the chromogenic substrate S-2222 in a dose-dependent manner.
Human thrombin,amidolytic activity of human thrombin towards chromogenic substrate S-2238 (absorbance at 405 nm),[1],Recombinant TFPI-2 was shown to have no effect on the amidolytic activity of human thrombin towards S-2238.
"Human factor VIIa/tissue factor complex (recombinant human factor VIIa with recombinant, truncated, human tissue factor apoprotein TF1-219) (protein) chain 1: ANAFLEELRPGSLERECKEEQCSFEEAREIFKDAERTKLFWISYSDGDQCASSPCQNGGSCKDQLQSYICFCLPAFEGRNCETHKDDQLICVNENGGCEQYCSDHTGTKRSCRCHEGYSLLADGVSCTPTVEYPCGKIPILEKRNASKPQGRIVGGKVCPKGECPWQVLLLVNGAQLCGGTLINTIWVVSAAHCFDKIKNWRNLIAVLGEHDLSEHDGDEQSRRVAQVIIPSTYVPGTTNHDIALLRLHQPVVLTDHVVPLCLPERTFSERTLAFVRFSLVSGWGQLLDRGATALELMVLNVPRLMTQDCLQQSRKVGDSPNITEYMFCAGYSDGSKDSCKGDSGGPHATHYRGTWYLTGIVSWGQGCATVGHFGVYTRVSQYIEWLQKLMRSEPRPGVLLRAPFP chain 2: SGTTNTVAAYNLTWKSTNFKTILEWEPKPVNQVYTVQISTKSGDWKSKCFYTTDTECDLTDEIVKDVKQTYLARVFSYPAGNVESTGSAGEPLYENSPEFTPYLETNLGQPTIQSFEQVGTKVNVTVEDERTLVRRNNTFLSLRDVFGKDLIYTLYYWKSSSSGKKTAKTNTNEFLIDVDKGENYCFSVQAVIPSRTVNRKSTDSPVECMGQEKGEFRE",amidolytic activity of 20 nM factor VIIa-tissue factor towards chromogenic substrate S-2288 (absorbance at 405 nm),[2],Recombinant TFPI-2 was shown to inhibit the amidolytic activity of 20 nM factor VIIa-tissue factor towards the chromogenic substrate S-2288 in a dose-dependent manner.
